Laboratory results published in patent US20040042961.

Assays:
[1] = system: GFP double loop insertion mutant at positions 157-158 and 174-175 with GGGG-LETD-GGGGG (caspase 8 sites)
[2] = system: GFP double insertion mutant K157-Q158 and D174-G175 (cathepsin L sites)
[3] = system: GFP single insertion mutant D174-G175 (GGGGFFRSGGGG inserted)
[4] = system: GFP single insertion mutant G117-D118 (GGGGFFRSGGGG inserted)
[5] = system: GFP single insertion mutant K102-D103 (GGGGFFRSGGGG inserted)
[6] = system: GFP single insertion mutant K157-Q158 (GGGGFFRSGGGG inserted)
[7] = system: GFP single insertion mutant T39-Y40 (GGGGFFRSGGGG inserted)
[8] = system: recombinant GFP-His protein (wild type GFP)
[9] = system: substitution mutants (GFP sequence substituted with FRS at various positions; fifteen fluorescent of twenty)

Sequence of cathepsin L (chain, as listed by the source): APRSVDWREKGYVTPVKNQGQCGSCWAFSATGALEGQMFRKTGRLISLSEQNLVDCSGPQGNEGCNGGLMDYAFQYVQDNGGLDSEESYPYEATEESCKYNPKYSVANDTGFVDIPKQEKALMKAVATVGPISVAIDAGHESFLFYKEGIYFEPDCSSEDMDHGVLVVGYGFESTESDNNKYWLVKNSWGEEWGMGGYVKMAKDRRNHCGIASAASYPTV

Substance	Cleavage at sequence introduced [1]	Cleavage at sequence introduced [2]	Cleavage at sequence introduced [3]	Cleavage at sequence introduced [4]	Cleavage at sequence introduced [5]	Cleavage at sequence introduced [6]	Cleavage at sequence introduced [7]	GFP fluorescence and SDS-PAGE band on incubation with 400 nM cathepsin L at pH 5.5 and 4.8 [8]	specific cleavage (SDS-PAGE) [9]
caspase 8	(yes)								
cathepsin L		(yes)	Yes	No	Yes	Yes	Yes	A time-dependent decrease in GFP fluorescence was observed (FIG. 10A), with concommitant disappearance of the GFP band on SDS-PAGE	fifteen mutants were fluorescent and therefore properly folded, but only one of them was specifically cleaved by cathepsin L
